Test results taken from patent US20090130123A1 (published 2009).

Key:
[1] = target: T1, Recombinant WNV-E protein ectodomain (West Nile virus, UniProt Q9Q6P4 291-700); test: SPR (Biacore 3000); scFv on NTA chip via His tag, rWNV-E in solution
T1 construct: extracellular domain; also called rWNV-E; WNE
T1 sequence (looked up): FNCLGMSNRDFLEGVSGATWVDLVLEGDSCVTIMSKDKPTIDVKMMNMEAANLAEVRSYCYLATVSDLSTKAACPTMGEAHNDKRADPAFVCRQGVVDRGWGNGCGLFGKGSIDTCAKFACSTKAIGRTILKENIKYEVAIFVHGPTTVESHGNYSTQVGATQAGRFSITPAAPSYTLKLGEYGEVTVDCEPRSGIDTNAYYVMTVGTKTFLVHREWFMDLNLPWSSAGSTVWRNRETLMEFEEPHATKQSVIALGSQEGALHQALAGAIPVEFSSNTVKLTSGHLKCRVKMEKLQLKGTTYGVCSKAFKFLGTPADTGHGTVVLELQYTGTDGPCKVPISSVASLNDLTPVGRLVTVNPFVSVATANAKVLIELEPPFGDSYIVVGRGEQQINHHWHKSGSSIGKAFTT

[2] = target: T1, Recombinant WNV-E protein ectodomain; test: ELISA; plate coated with rWNV-E (1 ug/ml), purified His6-tagged scFv, anti-His6-HRP, OD450

B1: scFv 10 (scFv, not shown: small tags and cut ends)
scFv: MAQVQLVQSGAEVKKPGSSVKVSCKASGYTFSGYSTHWLRQVPGQGLEWIGWDNPSSGDTTYAENFRGRVTLTRDTSITTDYLEVRGLRSDDTAVYYCARGGDDYSFDHWGQGTLVTVSSSGGGSGGGGSGGGGSQTVVTQEPSFSVSPGGTITLTCGLSSGSVFTSYYPSWYQQTPGQAPRTLIYSTNTRSSGVPDRFSGSILGNKAALTITGAQADDESDYYCVLYMGSGIGVFGTGTKVTVLGQPKAAPSAAAEQKLISEEDL
notes: also called 10 scFv; antibody 10
B1 gave a Ka [1] of 2.64e+07 M⁻¹, a Kd [1] of 37.8 nM and a koff [1] of 0.0212 s⁻¹. For the same binder, the kon [1] was 561000 M⁻¹ s⁻¹ and the “EC50 (read off the curve)” value [2] was about 0.2 µg/mL.
